Data reported in US20220089704A1 (Biogen, published 2022).

Columns and labels:
Human alpha-synuclein [1] = target: T1, Human alpha-synuclein (human, UniProt P37840 1-140); test: direct binding ELISA, plates coated with human alpha-synuclein, anti-hIgG-HRP detection
From the text: (§1) FIG. 46A is a graph showing alpha-synuclein direct binding ELISA. Human alpha-synuclein was coated on ELISA plates, treated with several dilutions of test reagents, and antibody binding at the indicated concentrations was detected with an HRP conjugated anti-hIgG secondary, measured by absorbance at 450 nm.

Human alpha-synuclein [2] = target: T1, Human alpha-synuclein; test: direct binding ELISA, plates coated with human alpha-synuclein; 12F4 hIgG1 as reference
From the text: as §1

Row | Binder | binding result (Human alpha-synuclein [1]) | binding result (Human alpha-synuclein [2])
1 | FC5-H62(T33C/A104C)-12F4(LC) hIgG1 (bispecific antibody, also called hFC5.2-12F4(LC) hIgG1; FC5-H62(T33C/A104C)-12F4 hIgG1) heavy: not shown light: DVQLVESGGGLVQPGGSLRLSCAASGFKITHYCTGWFRQAPGKEREFVSRITWGGDNTFYSNSVKGRFTISRDNSKNTVYLQMNSLRAEDTAVYYCAAGSTSTCTPLRVDYWGQGTLVTVSSGGGGSSYELTQPPSVSVSPGQTARITCSGEALPMQFAHWYQQRPGKAPVIVVYKDSERPSGVPERFSGSSSGTTATLTITGVQAEDEADYYCQSPDSTNTYEVFGGGTKLTVLSQPKAAPSVTLFPPSSEELQANKATLVCLISDFYPGAVTVAWKADSSPVKAGVETTTPSKQSNNKYAASSYLSLTPEQWKSHRSYSCQVTHEGSTVEKTVAPTECS | binds | 
2 | FC5-H62(T33C/A104C)-12F4(LC) hIgG4P/G1 agly (bispecific antibody) heavy: EVQLVESGGGLVEPGGSLRLSCAVSGFDFEKAWMSWVRQAPGQGLQWVARIKSTADGGTTSYAAPVEGRFIISRDDSRNMLYLQMNSLKTEDTAVYYCTSAHWGQGTLVTVSSASTKGPSVFPLAPCSRSTSESTAALGCLVKDYFPEPVTVSWNSGALTSGVHTFPAVLQSSGLYSLSSVVTVPSSSLGTKTYTCNVDHKPSNTKVDKRVESKYGPPCPPCPAPEFLGGPSVFLFPPKPKDTLMISRTPEVTCVVVDVSQEDPEVQFNWYVDGVEVHNAKTKPREEQFQSTYRVVSVLTVLHQDWLNGKEYKCKVSNKGLPSSIEKTISKAKGQPREPQVYTLPPSRDELTKNQVSLTCLVKGFYPSDIAVEWESNGQPENNYKTTPPVLDSDGSFFLYSKLTVDKSRWQQGNVFSCSVMHEALHNHYTQKSLSLSPG light: DVQLVESGGGLVQPGGSLRLSCAASGFKITHYCTGWFRQAPGKEREFVSRITWGGDNTFYSNSVKGRFTISRDNSKNTVYLQMNSLRAEDTAVYYCAAGSTSTCTPLRVDYWGQGTLVTVSSGGGGSSYELTQPPSVSVSPGQTARITCSGEALPMQFAHWYQQRPGKAPVIVVYKDSERPSGVPERFSGSSSGTTATLTITGVQAEDEADYYCQSPDSTNTYEVFGGGTKLTVLSQPKAAPSVTLFPPSSEELQANKATLVCLISDFYPGAVTVAWKADSSPVKAGVETTTPSKQSNNKYAASSYLSLTPEQWKSHRSYSCQVTHEGSTVEKTVAPTECS | binds | 
3 | FC5-H62(T33C/A104C)-12F4(LC) hIgG1 agly (N297Q) (bispecific antibody, also called FC5-H62(T33C/A104C)-12F4 hIgG1 agly) heavy: not shown light: DVQLVESGGGLVQPGGSLRLSCAASGFKITHYCTGWFRQAPGKEREFVSRITWGGDNTFYSNSVKGRFTISRDNSKNTVYLQMNSLRAEDTAVYYCAAGSTSTCTPLRVDYWGQGTLVTVSSGGGGSSYELTQPPSVSVSPGQTARITCSGEALPMQFAHWYQQRPGKAPVIVVYKDSERPSGVPERFSGSSSGTTATLTITGVQAEDEADYYCQSPDSTNTYEVFGGGTKLTVLSQPKAAPSVTLFPPSSEELQANKATLVCLISDFYPGAVTVAWKADSSPVKAGVETTTPSKQSNNKYAASSYLSLTPEQWKSHRSYSCQVTHEGSTVEKTVAPTECS | binds | 

Continued, values first:

Row | binding result (Human alpha-synuclein [1]) | binding result (Human alpha-synuclein [2]) | Binder
4 | binds |  | FC5-H62(T33C/A104C)-12F4(LC) hIgG2 SAA (bispecific antibody) heavy: EVQLVESGGGLVEPGGSLRLSCAVSGFDFEKAWMSWVRQAPGQGLQWVARIKSTADGGTTSYAAPVEGRFIISRDDSRNMLYLQMNSLKTEDTAVYYCTSAHWGQGTLVTVSSASTKGPSVFPLAPCSRSTSESTAALGCLVKDYFPEPVTVSWNSGALTSGVHTFPAVLQSSGLYSLSSVVTVPSSNFGTQTYTCNVDHKPSNTKVDKTVERKSCVECPPCPAPPAAAPSVFLFPPKPKDTLMISRTPEVTCVVVDVSHEDPEVQFNWYVDGVEVHNAKTKPREEQFNSTFRVVSVLTVVHQDWLNGKEYKCKVSNKGLPAPIEKTISKTKGQPREPQVYTLPPSREEMTKNQVSLTCLVKGFYPSDIAVEWESNGQPENNYKTTPPMLDSDGSFFLYSKLTVDKSRWQQGNVFSCSVMHEALHNHYTQKSLSLSPG light: DVQLVESGGGLVQPGGSLRLSCAASGFKITHYCTGWFRQAPGKEREFVSRITWGGDNTFYSNSVKGRFTISRDNSKNTVYLQMNSLRAEDTAVYYCAAGSTSTCTPLRVDYWGQGTLVTVSSGGGGSSYELTQPPSVSVSPGQTARITCSGEALPMQFAHWYQQRPGKAPVIVVYKDSERPSGVPERFSGSSSGTTATLTITGVQAEDEADYYCQSPDSTNTYEVFGGGTKLTVLSQPKAAPSVTLFPPSSEELQANKATLVCLISDFYPGAVTVAWKADSSPVKAGVETTTPSKQSNNKYAASSYLSLTPEQWKSHRSYSCQVTHEGSTVEKTVAPTECS
5 |  | binds | 12F4 hIgG1 (antibody, V domains shown, also called anti-alpha synuclein (12F4); 12F4 without FC5 attached) VH: EVQLVESGGGLVEPGGSLRLSCAVSGFDFEKAWMSWVRQAPGQGLQWVARIKSTADGGTTSYAAPVEGRFIISRDDSRNMLYLQMNSLKTEDTAVYYCTSAHWGQGTLVTVSS VL: SYELTQPPSVSVSPGQTARITCSGEALPMQFAHWYQQRPGKAPVIVVYKDSERPSGVPERFSGSSSGTTATLTITGVQAEDEADYYCQSPDSTNTYEVFGGGTKLTVLS
